Reference: PMC7363588, “Mapping of the FGF14:Nav1.6 complex interface reveals FLPK as a functionally active peptide modulating excitability” (Physiological Reports, 2020)

B1: CLuc-FGF14 [human] / CD4-Nav1.6 C-tail-NLuc [human] (parent)
chain 1: MVKPVPLFRRTDFKLLLCNHKDLFFLRVSKLLDCFSPKSMWFLWNIFSKGTHMLQCLCGKSLKKNKNPTDPQLKGIVTRLYCRQGYYLQMHPDGALDGTKDDSTNSTLFNLIPVGLRVVAIQGVKTGLYIAMNGEGYLYPSELFTPECKFKESVFENYYVIYSSMLYRQQESGRAWFLGLNKEGQAMKGNRVKKTKPAAHFLPKPLEVAMYREPSLHDVGETVPKPGVTPSKSTSASAIMNGGKPVNKSKTT
chain 2: IVVNMYIAIILENFSVATEESADPLSEDDFETFYEIWEKFDPDATQFIEYCKLADFADALEHPLRVPKPNTIELIAMDLPMVSGDRIHCLDILFAFTKRVLGDSGELDILRQQMEERFVASNPSKVSYEPITTTLRRKQEEVSAVVLQRAYRGHLARRGFICKKTTSNKLENGGTHREKKESTPSTASLPSYDSVTKPEKEKQQRAEEGRRERAKRQKEVRESKC

Variants of: B1
Experiment: split-luciferase complementation assay (LCA) in HEK293 cells
Details: with CD4-Nav1.6 C-tail-NLuc [human], DMSO vehicle control of the same pair = 100, read off a plot

Row | Variant | screen value (% Luminescence (RLU)) (EYYV peptide 50 µM present) | screen value (% Luminescence (RLU)) (FLPK peptide 50 µM present) | screen value (% Luminescence (RLU)) (PLEV peptide 50 µM present)
1 | chain 1 MVKPVPLFRRTDFKLLLCNHKDLFFLRVSKLLDCFSPKSMWFLWNIFSKGTHMLQCLCGKSLKKNKNPTDPQLKGIVTRLYCRQGYYLQMHPDGALDGTKDDSTNSTLFNLIPVGLRVVAIQGVKTGLYIAMNGEGYLYPSELFTPECKFKESVFENYYAIYSSMLYRQQESGRAWFLGLNKEGQAMKGNRVKKTKPAAHFLPKPLEVAMYREPSLHDVGETVPKPGVTPSKSTSASAIMNGGKPVNKSKTT [chain 1 V160A] | 93 | 91 | 94
2 | chain 1 MVKPVPLFRRTDFKLLLCNHKDLFFLRVSKLLDCFSPKSMWFLWNIFSKGTHMLQCLCGKSLKKNKNPTDPQLKGIVTRLYCRQGYYLQMHPDGALDGTKDDSTNSTLFNLIPVGLRVVAIQGVKTGLYIAMNGEGYLYPSELFTPECKFKESVFENAYVIYSSMLYRQQESGRAWFLGLNKEGQAMKGNRVKKTKPAAHFLPKPLEVAMYREPSLHDVGETVPKPGVTPSKSTSASAIMNGGKPVNKSKTT [chain 1 Y158A] | 100 | 87 | 110
3 | chain 1 MVKPVPLFRRTDFKLLLCNHKDLFFLRVSKLLDCFSPKSMWFLWNIFSKGTHMLQCLCGKSLKKNKNPTDPQLKGIVTRLYCRQGYYLQMHPDGALDGTKDDSTNSTLFNLIPVGLRVVAIQGVKTGLYIAMNGEGYLYPSELFTPECKFKESVFENAYAIYSSMLYRQQESGRAWFLGLNKEGQAMKGNRVKKTKPAAHFLPKPLEVAMYREPSLHDVGETVPKPGVTPSKSTSASAIMNGGKPVNKSKTT [chain 1 Y158A V160A] | 100 | 99 | 110
4 | chain 1 MVKPVPLFRRTDFKLLLCNHKDLFFLRVSKLLDCFSPKSMWFLWNIFSKGTHMLQCLCGKSLKKNKNPTDPQLKGIVTRLYCRQGYYLQMHPDGALDGTKDDSTNSTLFNLIPVGLRVVAIQGVKTGLYIAMNGEGYLYPSELFTPECKFKESVFENNYNIYSSMLYRQQESGRAWFLGLNKEGQAMKGNRVKKTKPAAHFLPKPLEVAMYREPSLHDVGETVPKPGVTPSKSTSASAIMNGGKPVNKSKTT [chain 1 Y158N V160N] | 79 | 100 | 72
